Measured values reported in US20140274782A1, “AFFINITY REAGENTS AND METHODS FOR DETECTION, PURIFICATION, AND PROTEOMIC ANALYSIS OF METHYLATED PROTEINS” (The Board of Trustees of the Leland Stanford Junior …, priority 2013, published 2014).

Key:
G9a and GLP = molecular target: T1, G9a and GLP (Homo sapiens, UniProt Q96KQ7+Q9H9B1); assay: Triple SILAC pull-down after UNC0638 treatment of 293T cells, DMSO/UNC0638 ratio of protein captured by 3×MBT; format: cell-based; details: for Relative to UNC0638 UNC Heavy: UNC0638 in heavy SILAC media; for Relative to UNC0638 UNC Light: UNC0638 in light SILAC media; for Relative to UNC0638 Average: average of UNC Light and UNC Heavy experiments;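 for all read-outs here: mass spectrometry (Q-Exactive) SILAC quantitation, DMSO/UNC0638 ratio computed after subtracting 3×MBTD355N mutant pull-down background, only proteins with at least twofold 3×MBT over mutant signal considered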
T1 construct: endogenous in cells; host or cells: HEK 293T
T1 sequence (Q96KQ7 2-1210 limits assumed): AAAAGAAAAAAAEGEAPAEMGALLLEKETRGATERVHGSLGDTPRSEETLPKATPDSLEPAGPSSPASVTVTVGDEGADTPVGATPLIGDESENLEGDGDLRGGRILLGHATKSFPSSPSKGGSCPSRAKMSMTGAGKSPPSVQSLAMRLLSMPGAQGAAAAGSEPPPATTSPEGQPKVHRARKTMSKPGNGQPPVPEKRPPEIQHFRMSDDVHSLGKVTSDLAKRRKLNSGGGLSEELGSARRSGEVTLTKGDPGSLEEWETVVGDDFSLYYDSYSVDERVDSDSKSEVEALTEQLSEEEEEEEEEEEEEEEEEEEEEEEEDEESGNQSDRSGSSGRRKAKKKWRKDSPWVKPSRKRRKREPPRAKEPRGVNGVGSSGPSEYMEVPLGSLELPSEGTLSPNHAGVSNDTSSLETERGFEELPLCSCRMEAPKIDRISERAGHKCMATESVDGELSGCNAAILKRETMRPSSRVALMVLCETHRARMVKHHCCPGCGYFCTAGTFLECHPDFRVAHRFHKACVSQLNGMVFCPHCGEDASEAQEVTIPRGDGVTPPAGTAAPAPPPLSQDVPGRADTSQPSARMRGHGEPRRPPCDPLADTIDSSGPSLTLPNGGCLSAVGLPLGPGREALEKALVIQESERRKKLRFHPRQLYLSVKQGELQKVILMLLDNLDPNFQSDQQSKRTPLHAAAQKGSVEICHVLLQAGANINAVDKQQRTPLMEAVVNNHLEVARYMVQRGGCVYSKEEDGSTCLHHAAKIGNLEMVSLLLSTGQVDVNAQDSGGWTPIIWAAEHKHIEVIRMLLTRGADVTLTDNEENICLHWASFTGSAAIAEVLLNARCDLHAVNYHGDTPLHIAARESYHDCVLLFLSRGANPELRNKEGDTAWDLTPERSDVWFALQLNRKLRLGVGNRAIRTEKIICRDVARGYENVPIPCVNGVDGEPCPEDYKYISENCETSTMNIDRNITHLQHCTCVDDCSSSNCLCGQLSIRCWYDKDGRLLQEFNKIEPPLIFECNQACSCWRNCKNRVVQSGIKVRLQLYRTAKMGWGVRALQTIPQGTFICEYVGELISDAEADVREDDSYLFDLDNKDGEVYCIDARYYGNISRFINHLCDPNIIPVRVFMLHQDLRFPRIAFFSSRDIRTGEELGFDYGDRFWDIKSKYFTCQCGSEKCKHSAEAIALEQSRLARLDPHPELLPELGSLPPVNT
T1 sequence (Q9H9B1 2-1298 limits assumed): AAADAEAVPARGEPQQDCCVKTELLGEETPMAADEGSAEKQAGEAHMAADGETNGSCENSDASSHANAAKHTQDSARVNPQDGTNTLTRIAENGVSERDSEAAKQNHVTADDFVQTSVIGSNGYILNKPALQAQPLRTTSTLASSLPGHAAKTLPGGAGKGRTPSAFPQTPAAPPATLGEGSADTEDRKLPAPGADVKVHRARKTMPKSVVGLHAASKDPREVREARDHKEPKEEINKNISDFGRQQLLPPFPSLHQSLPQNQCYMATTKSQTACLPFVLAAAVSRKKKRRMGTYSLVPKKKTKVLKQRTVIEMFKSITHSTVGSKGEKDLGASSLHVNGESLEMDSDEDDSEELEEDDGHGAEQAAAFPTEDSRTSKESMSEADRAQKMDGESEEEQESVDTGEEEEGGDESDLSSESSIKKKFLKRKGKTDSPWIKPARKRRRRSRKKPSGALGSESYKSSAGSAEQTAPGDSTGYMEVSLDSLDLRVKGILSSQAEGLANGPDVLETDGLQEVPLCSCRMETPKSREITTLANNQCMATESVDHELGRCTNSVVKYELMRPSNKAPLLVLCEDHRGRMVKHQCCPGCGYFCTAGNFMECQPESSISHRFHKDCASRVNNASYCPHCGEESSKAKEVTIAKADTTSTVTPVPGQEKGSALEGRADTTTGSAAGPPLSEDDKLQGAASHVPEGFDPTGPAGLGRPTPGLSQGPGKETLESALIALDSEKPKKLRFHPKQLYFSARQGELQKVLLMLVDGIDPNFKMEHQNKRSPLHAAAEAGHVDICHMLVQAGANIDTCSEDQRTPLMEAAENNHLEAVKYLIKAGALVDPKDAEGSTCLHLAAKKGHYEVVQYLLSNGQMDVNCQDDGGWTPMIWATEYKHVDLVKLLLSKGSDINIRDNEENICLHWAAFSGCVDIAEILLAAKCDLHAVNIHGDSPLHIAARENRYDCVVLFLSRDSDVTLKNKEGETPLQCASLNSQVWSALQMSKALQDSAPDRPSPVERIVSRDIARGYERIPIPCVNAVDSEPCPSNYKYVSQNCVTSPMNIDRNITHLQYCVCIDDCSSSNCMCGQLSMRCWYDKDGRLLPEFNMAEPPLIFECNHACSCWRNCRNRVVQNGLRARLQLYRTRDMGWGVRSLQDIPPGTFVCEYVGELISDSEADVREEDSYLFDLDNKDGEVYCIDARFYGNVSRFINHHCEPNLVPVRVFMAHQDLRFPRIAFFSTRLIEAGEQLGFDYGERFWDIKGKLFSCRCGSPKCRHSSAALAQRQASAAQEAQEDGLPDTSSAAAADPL

3×MBT domain of L3MBTL1 = assay: Triple SILAC pull-down, 3xMBT/3xMBTD355N ratio (cytoplasmic, nuclear and chromatin fractions of 293T cells); format: binding, human; details: for 3xMBT/D355N UNC Heavy: experiment with UNC0638 in heavy SILAC media; for 3xMBT/D355N UNC Light: experiment with UNC0638 in light SILAC media;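 for all read-outs here: proteins quantified with MaxQuant, requiring at least two unique peptides and quantification in both label directions, normalized to the mean of proteins from a digested loading control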
[1] = SILAC ratio DMSO/UNC0638 of protein pulled down with 3xMBT
[2] = SILAC ratio, pull-down 3xMBT vs 3xMBTD355N
[3] = SILAC ratio DMSO relative to UNC0638, pull-down with 3xMBT, all values in log base 2
[4] = SILAC ratio 3xMBT vs 3xMBTD355N pull-down, 293T cells, all values in log base 2

| Relative to UNC0638 UNC Heavy (G9a and GLP; [1]) [log base 2] | Relative to UNC0638 UNC Light (G9a and GLP; [1]) [log base 2] | Relative to UNC0638 Average (G9a and GLP) [log base 2] | Candidate G9a/GLP target (G9a and GLP; reduced association with 3xMBT after UNC0638 treatment) | Relative to UNC0638 UNC Heavy (G9a and GLP; [3]) [log base 2] | Relative to UNC0638 UNC Light (G9a and GLP; [3]) [log base 2] | Relative to UNC0638 Average (G9a and GLP; all values in log base 2) [log base 2] | Protein Ratios DMSO/UNC0638 (G9a and GLP; SILAC ratio of protein captured by 3xMBT, 293T cells treated 24 hours with UNC0638 at 2.5 μM or DMSO) | Substance | 3xMBT/D355N UNC Heavy (3×MBT domain of L3MBTL1; [2]) [log base 2] | 3xMBT/D355N UNC Light (3×MBT domain of L3MBTL1; [2]) [log base 2] | 3xMBT/D355N UNC Heavy (3×MBT domain of L3MBTL1; [4]) [log base 2] | 3xMBT/D355N UNC Light (3×MBT domain of L3MBTL1; [4]) [log base 2] | Protein Ratios 3xMBT/D355N (3×MBT domain of L3MBTL1; SILAC ratio, pull-down by 3xMBT vs 3xMBTD355N, 293T cells) |
| --- | --- | --- | --- | --- | --- | --- | --- | --- | --- | --- | --- | --- | --- |
| 0.21 | 0.95 | 0.58 | ✓ | – | – | – | – | PRKDC | 1.96 | 2.39 | – | – | – |
| – | – | – | – | 0.22 | −0.04 | 0.09 | – | ABCF1 | – | – | 2.36 | 2.94 | – |
| 1.23 | −1.01 | 0.11 | – | – | – | – | – | FXR1 | 1.60 | 1.73 | – | – | – |
| 0.05 | 0.46 | 0.25 | – | – | – | – | – | TRIM25 | 1.88 | 0.76 | – | – | – |
| 0.62 | −0.01 | 0.31 | – | – | – | – | – | PSME3 | 1.70 | 1.89 | – | – | – |
| 0.25 | 0.23 | 0.24 | – | – | – | – | – | SRSF3 | 2.63 | 2.55 | – | – | – |
| 0.31 | 0.14 | 0.22 | – | – | – | – | – | TUBB | 1.16 | 1.42 | – | – | – |
| 0.18 | 0.15 | 0.17 | – | – | – | – | – | HIST1H1C | 5.16 | 4.61 | – | – | – |
| 0.58 | −0.12 | 0.23 | – | – | – | – | – | YWHAE | 1.86 | 2.52 | – | – | – |
| 0.57 | −0.05 | 0.26 | – | – | – | – | – | USP10 | 2.00 | 2.13 | – | – | – |
| 0.00 | 0.37 | 0.18 | – | – | – | – | – | DIDO1 | 1.35 | 3.36 | – | – | – |
| 0.24 | 0.06 | 0.15 | – | – | – | – | – | CKAP5 | 2.10 | 1.30 | – | – | – |
| – | – | – | – | −0.32 | 0.03 | −0.15 | – | EIF4B | – | – | 3.26 | 2.50 | – |
| – | – | – | – | 0.24 | −0.15 | 0.05 | – | STRAP | – | – | 1.61 | 1.80 | – |
| – | – | – | – | 0.63 | −0.72 | −0.04 | – | MAP4K5 | – | – | 1.69 | 0.87 | – |
| – | – | – | – | 0.22 | −0.01 | 0.11 | – | SNRNP70 | – | – | 3.26 | 3.57 | – |
| – | – | – | – | 0.16 | 0.04 | 0.10 | – | MLLT4 | – | – | 3.31 | 2.39 | – |
| – | – | – | – | – | – | – | 1.4 | 60S ribosomal protein L5 | – | – | – | – | 2.3 |
| 0.19 | 0.26 | 0.22 | – | – | – | – | – | SNRNP200 | 2.08 | 3.14 | – | – | – |
| 0.21 | 0.21 | 0.21 | – | – | – | – | – | TOP2B | 1.61 | 2.04 | – | – | – |
| – | 0.54 | 0.54 | – | – | – | – | – | DNM2 | 0.05 | 0.57 | – | – | – |
| 0.14 | 0.23 | 0.18 | – | – | – | – | – | LANCL1 | 1.33 | 1.63 | – | – | – |
| 0.14 | 0.17 | 0.15 | – | – | – | – | – | XRCC5 | 2.15 | 2.80 | – | – | – |
